Data published in patent publication US5019384A, “Immunonodulating compositions and their use” (Massachusetts Institute of Technology, priority 1989, dated 1991).
Substitutions are numbered along the chain they refer to. Entries after “also recorded” stand apart in the source; their conditions may differ.

Tests used:
[1] = molecular target: T1, I-E^d (Mus musculus, UniProt P01904+P01915); assay: Gel filtration binding of 125I-labeled peptide to purified Ia (I-E^d)
T1 construct: endogenous in cells
T1 sequence (P01904 26-255): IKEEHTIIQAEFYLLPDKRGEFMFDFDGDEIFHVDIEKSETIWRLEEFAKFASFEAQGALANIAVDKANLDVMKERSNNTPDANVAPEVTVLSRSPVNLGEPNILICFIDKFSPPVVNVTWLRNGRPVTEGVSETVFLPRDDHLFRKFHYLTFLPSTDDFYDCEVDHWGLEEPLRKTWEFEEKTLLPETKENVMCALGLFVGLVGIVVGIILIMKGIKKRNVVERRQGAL
T1 sequence (P01915 27-264 limits assumed): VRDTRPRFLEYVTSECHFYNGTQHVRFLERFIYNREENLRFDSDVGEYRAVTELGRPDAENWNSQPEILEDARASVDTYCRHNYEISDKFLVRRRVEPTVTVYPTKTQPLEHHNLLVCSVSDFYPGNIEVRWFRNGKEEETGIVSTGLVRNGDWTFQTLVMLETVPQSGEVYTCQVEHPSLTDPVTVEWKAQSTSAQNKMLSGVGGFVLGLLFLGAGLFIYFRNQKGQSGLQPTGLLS
Text: (§1) The peptide P12-26 was modified by the addition of a tyrosine residue to the N-terminus to serve as an acceptor for the ^125 I.
(§2) Ia-molecules were purifed from Nonidet P-40 (NP-40) lysates of A20 (H2^d) or AKTB-1b (H2^k) cells by affinity chromatography using the following monoclonal antibodies: MK-D6 (I-A^d -specific), 10-3-6 (I-A^k -specific) specific) or 14-4-4 (I-E^d/k -specific) coupled to Sepharose 4B beads (Pharmacia Fine Chemicals, Sweden).
(§3) A gel filtration assay was used for determining the degree of association between immunogenic peptides and Ia. The assay is described in: Buus, S. et al., Proceeding of the National Academy of Sciences, U.S.A. (1986) 83:3968, the teaching of which is incorporated herein by reference. Briefly, 40 μmole of purified Ia in 1 percent NP-40/PBS was mixed with 0.2 μmole of ^125 I-labeled peptide (approximately 200,000 cpm for each experiment) and incubated for 48 hours at room temperature to allow for formation of the Ia-peptide complex. The Ia-peptide complexes were separated from free peptide by gel filtration and the percentage of peptide bound to Ia was calculated as the ratio of the ^125 I-labeled peptide in the void volume to the total ^125 I-labeled peptide recovered.

[2] = system: T-cell hybridoma DO-11.10; type: cell-based
[3] = molecular target: T2, I-E^k (Mus musculus, UniProt P04224+P04230); assay: Inhibition of binding of 125I-labeled Cytochrome c (pigeon) (P88-104) to I-E^k; conditions: 125I Cytochrome c (pigeon) (P88-104) bound to I-E^k; read-out: Concentration (μM) of P12-26 Required for 50 percent Inhibition
T2 sequence (P04224 26-255): T1 sequence (P01904 26-255) with T177H, M194V
T2 sequence (P04230 27-264): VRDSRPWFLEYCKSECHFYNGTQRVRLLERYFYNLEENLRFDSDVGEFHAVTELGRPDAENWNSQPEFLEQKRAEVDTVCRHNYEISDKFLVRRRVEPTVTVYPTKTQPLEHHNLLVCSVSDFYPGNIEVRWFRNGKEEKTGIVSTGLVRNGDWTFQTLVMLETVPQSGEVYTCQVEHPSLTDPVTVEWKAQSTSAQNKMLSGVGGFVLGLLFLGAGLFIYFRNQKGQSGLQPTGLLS
Text: as §2
as §3, with “Briefly, 40 μmole of purified Ia in 1 percent NP-40/PBS was mixed with 0.2 μmole of ^125 I-labeled peptide (approximately 200,000 cpm for each experiment) and incubated for 48 hours at room temperature to allow for formation of the Ia-peptide complex.” left out
For the inhibition assay a dose-range of unlabeled cI P12-26 peptide was added to the incubation mixture of Ia and ^125 I-labeled peptide (600, 120, 24, ad 48 μM). The degree of association between Ia and labeled peptide was determined by gel filtration as described in Table 1. […] The concentration of inhibitory peptide required to obtain a 50 percent inhibition of binding was calculated. […]

[4] = system: I-E^d; assay: Restriction of peptide-specific T-cell hybrids assayed on L cells expressing I-A^d or I-E^d; type: cell-based, Balb/c mouse; conditions: P12-26: of more than 300 hybrids; myoglobin (P135-147): of 80 hybrids
Text: That is, they could be stimulated by antigen in the presence of L cells expressing I-A^d, but could not be shown to be stimulated by antigen in the presence of L cells expressing I-E^d.
The proliferation of these same cultures was not inhibited (75,000 cpm) by a monoclonal antibody, 34-1-4S, which is specific for I-E^d and which inhibits the stimulation of a hemocyanin specific, I-E^d resticted T-cell hybridoma.

[5] = molecular target: T2, I-E^k; assay: Gel filtration binding of 125I-labeled peptide to purified Ia (I-E^k)
Text: as §1, §2, §3

Substance: P12-26: derived from the cI protein of bacteriophage lambda (residues 12-26)
- Binding to the I-E^d molecule (in words) [1]: binds most tightly; also recorded: binds best; also recorded: binds exceedingly well
- Stimulation of DO-11.10 [2]: Neither of these peptides can stimulate DO-11.10 on its own
- Inhibition of ovalbumin-specific T-cell activation (DO-11.10) ([2]; Ova (P324-336) as stimulator, A20 presenting cells, peptide at 50 μM, 24 hrs): act as inhibitors
- IC50 [3]: 300 µM
- Number of peptide-specific hybrids restricted by I-E^d [4]: none
- Binding to the I-E^k molecule (in words) [5]: able to bind to both molecules as expected
